Data on five molecules can be found in patent publication US20180311300A1 (published 2018).

Experiment [1] addresses T1, MT1-MMP hemopexin domain (UniProt P50281 319-511).
T1 construct: domain: hemopexin domain; also called hemopexin of MT1-MMP; membrane type 1 metalloprotease
Description: fluorescence polarization (anisotropy) assay on MT1-MMP hemopexin domain; grade B = Ki >50 nM and <=100 nM. The method, then:
(§1) Direct Binding Fluorescence Polarization or Anisotropy Assays are performed by titrating a constant concentration of fluorescent tracer (here, the fluoresceinated bicyclic peptide to be studied) with its binding partner (here, the MT1-MMP hemopexin domain). As the concentration of binding partner increases during the titration, the polarization signal changes in proportion to the fraction of bound and unbound material. This allows determination of […] (Kd) quantitatively. Assay data can be fit using standard ligand binding equations.
(§2) The titrant (binding partner) concentration is varied from 0.1 nM up to typically 5 μM. The range is chosen such that the maximum change in fluorescent polarization can be observed. Buffers employed are phosphate buffered saline in the presence of 0.01% Tween. Experiments were run in black 384 well low-bind/low volume plates (Corning 3820), and the fluorescent polarization signal was measured using a BMG Pherastar FS plate reader. Fluorescent tracers referred to in the text are bicyclic peptides that have been fluoresceinated using 5,6-carboxyfluorescein. Fluoresceination may be performed on the N-terminal amino group of the peptide, which is separated from the bicycle core sequence by a sarcosine spacer (usually Sar5). […]
(In general: In fluorescence polarisation assays a small probe gives low polarisation when free and higher when bound to something large.)

For experiment [2], the target named is T1, MT1-MMP hemopexin domain. As to the kind of experiment: fluorescence polarization (anisotropy) assay on MT1-MMP hemopexin domain; grade A = Ki <50 nM. The method, then: as §1, §2
The target of experiment [3] is T1, MT1-MMP hemopexin domain. Description: fluorescence polarization (anisotropy) assay on MT1-MMP hemopexin domain; grade D = Ki >1,000 nM. The method, then:
as §1, §2

Where “and” joins values, the source holds several entries; their conditions need not be identical. Equal entries are not always repeated. Numbered stars: 1 amine (or outer) side, 2 acyl side, 3 side chain; on linkers, the order of the positions; unused ones are H or OH. Bridge positions count the residues as written; N and C are the ends. Square brackets hold non-standard residues; d marks the D form. Ends that are not written are not given here. Intermediate H = 1,1',1''-(1,7,13-trioxa-4,10,16-triazacyclooctadecane-4,10,16-triyl)tris(2-chloroethan-1-one), O=C(C[*:1])N1CCOCCN(C(=O)C[*:2])CCOCCN(C(=O)C[*:3])CCOCC1; Intermediate D = 1,1',1''-(1,4,7-triazonane-1,4,7-triyl)tris(prop-2-en-1-one), O=C(CC[*:1])N1CCN(C(=O)CC[*:2])CCN(C(=O)CC[*:3])CC1; Intermediate K = 1,3,5-tris(vinylsulfonyl)benzene, O=S(=O)(CC[*:1])c1cc(S(=O)(=O)CC[*:2])cc(S(=O)(=O)CC[*:3])c1; Intermediate C = 1,1',1''-(1,4,7-triazonane-1,4,7-triyl)tris(2-chloroethan-1-one); Intermediate I = 1,4,7-tris(vinylsulfonyl)-1,4,7-triazonane; 1Nal = N[C@@H](Cc1cccc2ccccc12)C(=O)O; Tle = CC(C)(C)[C@H](N)C(=O)O Bounds are passed on as bounds.

B1: I-58 (peptide)
peptide: AC[dA]NE[1Nal][dA]CEDFYD[Tle]C
modifications: linker 2-8-15 via Intermediate H
notes: also called peptide 4 cyclised with Intermediate H
The Ki is the dissociation constant of the complex between target and ligand, obtained from inhibition or displacement. A lower Ki goes with higher affinity. On to B1, for which, in experiment [1], the Ki was > 50 nM and ≤ 100 nM.

B2: I-54 (peptide)
peptide: AC[dA]NE[1Nal][dA]CEDFYD[Tle]C
modifications: linker 2-8-15 via Intermediate C
notes: also called peptide 4 cyclised with Intermediate C
As for B2, the Ki in experiment [2] is below 50 nM.

B3: I-59 (peptide)
peptide: AC[dA]NE[1Nal][dA]CEDFYD[Tle]C
modifications: linker 2-8-15 via Intermediate I
notes: also called peptide 4 cyclised with Intermediate I
On to B3, for which the Ki in experiment [3] is above 1000 nM.

B4: I-55 (peptide)
peptide: AC[dA]NE[1Nal][dA]CEDFYD[Tle]C
modifications: linker 2-8-15 via Intermediate D
notes: also called peptide 4 cyclised with Intermediate D
With B4, the Ki in experiment [1] is > 50 nM and ≤ 100 nM.

B5: I-61 (peptide)
peptide: AC[dA]NE[1Nal][dA]CEDFYD[Tle]C
modifications: linker 2-8-15 via Intermediate K
notes: also called peptide 4 cyclised with Intermediate K
B5 showed a Ki in experiment [2] below 50 nM.
